Measurements as given in article PMC6992733, “Analysis of the polycystin complex (PCC) in human urinary exosome–like vesicles (ELVs)” (Scientific Reports, 2020).
“And” between values parts separate entries of the source, which are not always exact repeats. Equal values may be shown once.

B1: polycystin-2 (PC2) of urinary ELVs (natural protein, human (endogenous in urinary ELVs), UniProt Q13563 1-968, looked up)
chain: MVNSSRVQPQQPGDAKRPPAPRAPDPGRLMAGCAAVGASLAAPGGLCEQRGLEIEMQRIRQAAARDPPAGAAASPSPPLSSCSRQAWSRDNPGFEAEEEEEEVEGEEGGMVVEMDVEWRPGSRRSAASSAVSSVGARSRGLGGYHGAGHPSGRRRRREDQGPPCPSPVGGGDPLHRHLPLEGQPPRVAWAERLVRGLRGLWGTRLMEESSTNREKYLKSVLRELVTYLLFLIVLCILTYGMMSSNVYYYTRMMSQLFLDTPVSKTEKTNFKTLSSMEDFWKFTEGSLLDGLYWKMQPSNQTEADNRSFIFYENLLLGVPRIRQLRVRNGSCSIPQDLRDEIKECYDVYSVSSEDRAPFGPRNGTAWIYTSEKDLNGSSHWGIIATYSGAGYYLDLSRTREETAAQVASLKKNVWLDRGTRATFIDFSVYNANINLFCVVRLLVEFPATGGVIPSWQFQPLKLIRYVTTFDFFLAACEIIFCFFIFYYVVEEILEIRIHKLHYFRSFWNCLDVVIVVLSVVAIGINIYRTSNVEVLLQFLEDQNTFPNFEHLAYWQIQFNNIAAVTVFFVWIKLFKFINFNRTMSQLSTTMSRCAKDLFGFAIMFFIIFLAYAQLAYLVFGTQVDDFSTFQECIFTQFRIILGDINFAEIEEANRVLGPIYFTTFVFFMFFILLNMFLAIINDTYSEVKSDLAQQKAEMELSDLIRKGYHKALVKLKLKKNTVDDISESLRQGGGKLNFDELRQDLKGKGHTDAEIEAIFTKYDQDGDQELTEHEHQQMRDDLEKEREDLDLDHSSLPRPMSSRSFPRSLDDSEEDDDEDSGHSSRRRGSISSGVSYEEFQVLVRRVDRMEHSIGSIVSKIDAVIVKLEIMERAKLKRREVLGRLLDGVAEDERLGRDSEIHREQMERLVREELERWESDDAASQISHGLGTPVGLNGQPRPRSSRPSSSQSTEGMEGAGGNGSSNVHV
modifications: mature post-Golgi N-linked glycosylation (PNGase F sensitive, Endo H resistant)
notes: polycystin-2, human, product of PKD2, printed length 968 aa; about 10-13% is cleaved in the C-terminal tail N-terminal to the coiled-coil domain (833..872 aa); also called ELV PC2; source: endogenous, human urinary exosome-like vesicles (ELVs), detergent-solubilised
B2: polycystin-2 (PC2) of human renal cortical tubular epithelial (RCTE) cells (natural protein, human (endogenous in RCTE cells), UniProt Q13563 1-968, looked up)
chain: B1 chain
notes: polycystin-2, human, product of PKD2, printed length 968 aa; also called PC2 from cells; source: endogenous, human RCTE cells

How the values were obtained:
[1] = target: the molecule itself; assay: native gel or EMSA; purified urinary ELVs with 0.2-0.8% SDS, non reducing, incubated on ice 20 min without heating; native gel; western blot
[2] = target: the molecule itself; assay: SDS-PAGE and western blot; human RCTE cells, PC2 bands on SDS-PAGE western blot read as monomer, dimer and tetramer (Supplemental Fig. 2)

Protein | stoichiometry N [1] | stoichiometry N [2]
B1 | 2 | 
B2 |  | 2 and 4
